In one data set the test system is PI(3,4)P2 liposomes. Nature of the data set: Yeast proteome chip probed with PI(3,4)P2 liposomes. As to conditions: liposome binding signal on yeast proteome chip, Cy3-streptavidin detection.
In data set [1] the test system is phosphatidylcholine (PC) liposomes. Description: Yeast proteome chip probed with PC liposomes. As to conditions: liposome binding signal on yeast proteome chip, Cy3-streptavidin detection. The method, boiled down: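 Sonicated liposomes in TBS, of phosphatidylcholine with 1% (w/w) biotin-DHPE plus 5% (w/w) of the named phosphoinositide (PC-only liposomes lacking it), were incubated on blocked chips of GST-RGS-His6-tagged yeast ORF proteins for 1 h at RT. Bound liposomes were detected with Cy3- or Cy5-streptavidin after PBS washes.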

The subject of the next data set is six different liposomes. Nature of the data set: Reverse membrane assay: proteins spotted on nitrocellulose probed with six liposomes. It counts as binding. As to conditions: HRP-conjugated streptavidin. Here is the method: B. A reverse assay was carried out to test for protein-lipid interactions. The proteins were prepared and spotted onto nitrocellulose filters in a dilution series and probed with the six different liposomes. As a control, the six liposomes were also added to the BSA-blocked membrane. After extensive washing, the bound liposomes were detected using an HRP-conjugated streptavidin and an ECL kit.
C. Linear correlation between the binding signals and the amounts of Rim15p in a membrane assay. When liposome-binding signals of Rim15p from the membrane assay (FIG. 4B) were plotted against the concentration gradient of the spotted Rim15p, the binding signals of PI(4)P, PI(3,4)P2, PI(3)P, and PI(4,5)P2 correlated linearly with the amounts of Rim15p.
Therefore, six proteins, i.e., Rim15p, Eno2p, Hxk1p, Sps1p, Yg1059wp, and Gcn2p, were further tested for phosphoinositol binding using two types of standard assays (Williamson, 2000, Nat. Struct Biol. 7(10):834-7). For Rim15p, Eno2p, and Hxk1p, PI(4,5)P2 liposomes were first adhered to a nitrocellulose membrane, which was then blocked by BSA; different amounts of the GST fusion proteins and a GST control were used to probe the membrane, and bound proteins were detected using anti-GST antibodies. […] The bound liposomes were detected using a horseradish peroxidase (“HRP”)-conjugated streptavidin.

Another data set has as its system PI(4)P liposomes. Description: Yeast proteome chip probed with PI(4)P liposomes. The following applies: liposome binding signal on yeast proteome chip, Cy3-streptavidin detection.
The subject of the next data set is PI(3)P liposomes. Description: Yeast proteome chip probed with PI(3)P liposomes. The following applies: liposome binding signal on yeast proteome chip, Cy3-streptavidin detection.
The subject of another data set is PI(3,4,5)P3 liposomes. Description: Yeast proteome chip probed with PI(3,4,5)P3 liposomes. The following applies: liposome binding signal on yeast proteome chip, Cy3-streptavidin detection.
The test system of a further data set is PI(4,5)P2 liposomes. Nature of the data set: Yeast proteome chip probed with PI(4,5)P2 liposomes. The following applies: liposome binding signal on yeast proteome chip, Cy3-streptavidin detection.

B1: SPS1: yeast GST-HisX6 fusion protein on proteome chip (protein, UniProt P08458 1-490, looked up)
Sporulation-specific protein 1: MESKEISIRSRTPPSKLYSIQSCIGRGNFGDVYKAVDRVTQEIVAIKVVNLEHSDEDIELLAQEIFFLAELKSPLITNYIATMLEDVSMWIVMEYCGGGSCSDLLKRSYVNGLPEEKVSFIIHEVTLGLKYLHEQRKIHRDIKAANILLNEEGMVKLGDFGVSGHIRSTLKRDTFVGTPYWMAPEVVCCEVDGYNEKADIWSLGITTYELLKGLPPLSKYDPMKVMTNLPKRKPPKLQGPFSDAAKDFVAGCLVKTPADRPSAYNLLSFEFVKNITITNLKSDVDLIKQKKVQERYTKVPKYPLQNRLYKNSNTVRGKEFWNFESTRLSTTQISKEELSPITQDSPTSSLNMESPYLLHGQTVTPITNPSSSSFRKCTQPVFELDSGMDIDSGCPNAQAETEIVPLSNHNKKHKKNDIQALKIEKFDYLKNIVSHILNRMYDRARDDETRKYVNEMLKQFIKTEANVPGFNEVFIEEISLRIEAIKKGFV
modifications: GST-His6 fusion tag
notes: yeast GST-HisX6 fusion protein on proteome chip
Consider B1, for which the “PI(3, 4)P2” value in the data set with PI(3,4)P2 liposomes came to 1147.50. Besides, in data set [1], the PC came to 557.02. Further, in the data set on six different liposomes, the “liposome binding in reverse membrane assay” value is reported as “bound all five phosphoinositol-containing liposomes nearly equally”. Also, the “PI(4)P” value in the data set with PI(4)P liposomes was 246.92. Also, the “PI(3)P” value in the data set on PI(3)P liposomes was 88.50. The “PI(3, 4, 5)P3” value in the data set with PI(3,4,5)P3 liposomes is given as 389.70. The “PI(4, 5)P2” value with PI(4,5)P2 liposomes came to 358.84.
